In patent US20170267780A1:

Assays:
[1] = molecular target: Recombinant human FcRn (human) (UniProt P55899); assay: SPR (ProteOn), IgG immobilised, pH 6.0
[2] = molecular target: Recombinant human FcRn (human) (UniProt P55899); assay: SPR (ProteOn), IgG immobilised, pH 7.4
[3] = molecular target: Cyno FcRn (cynomolgus monkey) (UniProt Q8SPV9); assay: SPR (ProteOn), IgG immobilised, cyno FcRn, pH 6.0
C1q = C1q (UniProt P02745); assay: effector binding, values nM, method not stated
Fcγ IIIa (158 F) = Fcγ IIIa (158 F) (UniProt P08637); assay: effector binding, values nM, method not stated
Sequence of Fcγ IIIa (158 F) (P08637 17-208 limits assumed): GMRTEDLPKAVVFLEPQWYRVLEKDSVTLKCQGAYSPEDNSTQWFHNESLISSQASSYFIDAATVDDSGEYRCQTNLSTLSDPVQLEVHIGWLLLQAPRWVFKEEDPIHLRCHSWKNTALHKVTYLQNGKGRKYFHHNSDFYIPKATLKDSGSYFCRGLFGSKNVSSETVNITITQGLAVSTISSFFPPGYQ

Fcγ IIIa (158 V) = Fcγ IIIa (158 V) (UniProt P08637); assay: effector binding, values nM, method not stated
Sequence of Fcγ IIIa (158 V) (P08637 17-208 F176V limits assumed): as the sequence (P08637 17-208 limits assumed) above, with F160V counted along it

Fcγ IIb = Fcγ IIb (UniProt P31994); assay: effector binding, values nM, method not stated
Sequence of Fcγ IIb (P31994 43-217 limits assumed): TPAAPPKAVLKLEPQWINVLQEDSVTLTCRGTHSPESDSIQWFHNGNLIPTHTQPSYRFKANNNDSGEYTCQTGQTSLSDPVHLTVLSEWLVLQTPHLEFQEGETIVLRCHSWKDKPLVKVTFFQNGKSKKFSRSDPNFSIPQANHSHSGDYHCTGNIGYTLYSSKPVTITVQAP

[4] = molecular target: Cyno FcRn (cynomolgus monkey) (UniProt Q8SPV9); assay: SPR (ProteOn), IgG immobilised, cyno FcRn, pH 7.4
Fcγ RIa = Fcγ RIa (UniProt P12314); assay: effector binding, values nM, method not stated
Sequence of Fcγ RIa (P12314 16-288 limits assumed): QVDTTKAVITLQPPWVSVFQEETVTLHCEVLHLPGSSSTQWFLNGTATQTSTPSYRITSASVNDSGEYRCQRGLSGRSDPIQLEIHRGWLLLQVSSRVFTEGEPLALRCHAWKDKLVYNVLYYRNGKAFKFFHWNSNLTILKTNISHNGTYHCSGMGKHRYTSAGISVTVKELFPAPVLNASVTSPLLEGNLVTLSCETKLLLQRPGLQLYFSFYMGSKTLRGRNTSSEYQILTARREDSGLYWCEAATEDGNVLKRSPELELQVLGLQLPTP

Fcγ IIa = Fcγ IIa (UniProt P12318); assay: effector binding, values nM, method not stated
Sequence of Fcγ IIa (P12318 34-217 limits assumed): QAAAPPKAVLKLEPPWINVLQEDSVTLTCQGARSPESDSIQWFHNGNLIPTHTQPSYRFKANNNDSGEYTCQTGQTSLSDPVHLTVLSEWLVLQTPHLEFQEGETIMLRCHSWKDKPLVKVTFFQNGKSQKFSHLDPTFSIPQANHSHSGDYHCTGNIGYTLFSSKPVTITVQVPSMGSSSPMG

Sequence of Cyno FcRn (cynomolgus monkey) (Q8SPV9 24-297 limits assumed, chain 1 of 2): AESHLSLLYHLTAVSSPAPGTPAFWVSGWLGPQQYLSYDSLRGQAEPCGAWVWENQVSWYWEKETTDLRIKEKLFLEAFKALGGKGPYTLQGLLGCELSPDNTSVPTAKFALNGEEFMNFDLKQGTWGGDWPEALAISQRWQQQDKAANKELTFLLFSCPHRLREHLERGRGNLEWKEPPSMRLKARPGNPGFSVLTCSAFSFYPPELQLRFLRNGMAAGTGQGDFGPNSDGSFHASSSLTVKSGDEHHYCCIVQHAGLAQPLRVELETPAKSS
Sequence of Cyno FcRn (cynomolgus monkey) (Q8SPW0 21-119 limits assumed, chain 2 of 2, further chain): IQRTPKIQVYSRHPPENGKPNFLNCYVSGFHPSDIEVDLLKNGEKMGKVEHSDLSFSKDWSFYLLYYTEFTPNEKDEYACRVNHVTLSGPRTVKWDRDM
Sequence of C1q (P02745 23-245, chain 1 of 3): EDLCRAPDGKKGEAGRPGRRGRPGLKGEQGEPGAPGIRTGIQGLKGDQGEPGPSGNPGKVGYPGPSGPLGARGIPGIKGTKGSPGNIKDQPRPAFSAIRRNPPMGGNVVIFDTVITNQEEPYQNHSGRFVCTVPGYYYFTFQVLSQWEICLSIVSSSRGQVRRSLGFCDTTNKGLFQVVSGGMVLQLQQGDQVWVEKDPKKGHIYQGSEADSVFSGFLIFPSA
Sequence of C1q (P02746 28-253, chain 2 of 3, further chain): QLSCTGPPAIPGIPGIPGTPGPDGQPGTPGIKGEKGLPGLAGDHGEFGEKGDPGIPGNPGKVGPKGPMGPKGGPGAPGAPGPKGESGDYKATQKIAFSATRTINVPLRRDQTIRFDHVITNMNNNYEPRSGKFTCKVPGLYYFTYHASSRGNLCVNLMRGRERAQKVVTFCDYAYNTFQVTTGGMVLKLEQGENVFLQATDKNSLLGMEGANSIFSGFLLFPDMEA
Sequence of C1q (P02747 29-245, chain 3 of 3, further chain): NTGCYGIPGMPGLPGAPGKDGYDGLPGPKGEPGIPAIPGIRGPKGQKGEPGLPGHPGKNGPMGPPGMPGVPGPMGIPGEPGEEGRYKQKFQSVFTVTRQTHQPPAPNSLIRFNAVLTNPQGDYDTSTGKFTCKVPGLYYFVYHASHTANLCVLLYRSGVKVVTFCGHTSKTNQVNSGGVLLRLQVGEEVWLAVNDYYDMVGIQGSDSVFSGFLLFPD

Kd [1] | Kd [2] | Kd [3] | Kd (C1q) | Kd (Fcγ IIIa (158 F)) | Kd (Fcγ IIIa (158 V)) | Kd (Fcγ IIb) | Kd [4] | Kd (Fcγ RIa) | Kd (Fcγ IIa) | Substance
215 nM | 5800 nM |  |  |  |  |  |  |  |  | HB20.3 (anti-CD20) IgG1 YTE (antibody)
314 nM |  | 275 nM | 482 nM | 6060 nM | 245 nM | 1950 nM | 8000 nM |  |  | Motavizumab YTE (antibody)
 |  | 1920 nM | 328 nM | 4140 nM |  |  |  | 45.8 nM | 506 nM | Wildtype Motavizumab (antibody)
